Reference: publication PMC314469, “Protein Interaction Networks by Proteome Peptide Scanning” (PLoS Biology, 2004)

T1: Abp1 SH3 (ABP1_YEAST), P15891
T1 chain: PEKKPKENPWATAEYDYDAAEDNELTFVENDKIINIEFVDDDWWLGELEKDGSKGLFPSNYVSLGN


Biological target: T1, Abp1 SH3 (ABP1_YEAST), P15891
Test: SPOT array

normalised SPOT signal, Boehringer light units (BLU); mean over the file's lines of this peptide | Binder
223 | ALDGSSKPFKVKP [YLR392C 95-107]
94.4 | AHLSAADPDFYKP [YOR153W 112-124]
364 | AQLLNPNRRAPRRP [YJL128C 177-190]
27.3 | AGDDEPGADEPARP [YOL073C 298-311]
143 | ASSFQLPPGVKKP [YPL019C 671-683]
190 | APIPESPANSPTRP [YMR115W 51-64]
112 | ASVEQFDLKMPSKP [YLR055C 485-498]
40.2 | AISIFDMNLSPIKP [YKL108W 91-104]
103 | ATKVDATPEESKP [YLR335W 584-596]
93.1 | ASTLGITPADSKP [YMR016C 645-657]
132 | AIIDRIPPPTGRP [YLR289W 219-231]
102 | ALFGFRDPNGIRP [YMR300C 181-193]
160 | AEGNVKPWNPPQKP [YLR295C 56-69]
328 | AKDPIRTPDAKKP [YLR226W 381-393]
199 | ASIVVIPAGVPRKP [YOL126C 141-154]
464 | AMIAHLSPHNARP [YJR124C 130-142]
122 | ASKLVEQHMAPPKP [YPL085W 1841-1854]
2150 | ASSKLKKPPKAKP [YML059C 513-525]
87.3 | AKKEFDEKLPPKKP [YMR072W 106-119]
8310 | APIIGSPRHAPSRP [YOL138C 1118-1131]
1990 | ASLFPRDPKRLRP [YLL018C 545-557]
78.3 | ASLRAGLPTVIKP [YLR189C 1077-1089]
103 | APLNLDNPSSERP [YPL012W 496-508]
99.8 | AQKDSSVVSEPKKP [YOR098C 642-655]
233 | AGPKPSISLVPDKP [YLR189C 14-27]
61.8 | ADDSFIFPDEDKP [YNL103W 152-164]
517 | ASTYGRSPSGFRP [YKR089C 707-719]
91.9 | ALKDFHSTLDPSKP [YOR251C 241-254]
2110 | ASSSPFIPKKRKP [YLR430W 2217-2229]

More lines, now with the values behind:

Binder | normalised SPOT signal, Boehringer light units (BLU); mean over the file's lines of this peptide
AGGGIWGPMEKKP [YHR093W 43-55] | 120
ALKQKKIPPPFKP [YHR205W 678-690] | 5260
ANVQNVIPDDSKP [YDR331W 298-310] | 35.4
ASQPEPTTNEPAKP [YJL041W 251-264] | 114
ATFETKFLVVPFKP [YDR200C 169-182] | 74
ATSIGNSPVTAKP [YAR033W 173-185] | 71
AIIYHHKAGDPFKP [YGR276C 328-341] | 155
ARTGYETPVKVRP [YCL055W 274-286] | 342
AIAYDNAPYSPKP [YGL008C 735-747] | 173
APEIINDLNHPEKP [YEL070W 157-170] | 86
ATTNDDKKTEPDKP [YJL041W 183-196] | 63.8
ATTEFETPELFKP [YIL031W 418-430] | 78.7
ASSAELRPLLERP [YDL129W 167-179] | 78.5
ASSKMGAPWSVKP [YGL133W 239-251] | 146
AIRKENLPNLEKP [YDR150W 1608-1620] | 72.3
AIKSIYSPSDKRP [YBR229C 581-593] | 351
APKKWKAPKGPKP [YGL099W 6-18] | 332
ADQRKLFPNWIKP [YHR165C 1003-1015] | 456
ALPTGAPPTTPSRP [YGR170W 87-100] | 92.1
ALWEVGSGGDPTKP [YEL056W 186-199] | 80.3
ALNDSMFFPYPFKP [YGL131C 433-446] | 138
AQVVLIPAGVPRKP [YDL078C 69-82] | 53.3
ASNFVQRPVISKP [YDL145C 797-809] | 2410
AKSTRSSPQKAKP [YBR203W 447-459] | 88.6
ALPLPAVFSAPIRP [YBR031W 19-32] | 49.7
ANSVPIMPTLPPRP [YGL060W 533-546] | 112
AIDPPRRPHNVKP [YCL048W 27-39] | 2120
ATLDGKLKHIPRRP [YEL007W 23-36] | 630
AMLEEQVKSNPNRP [YGR234W 289-302] | 0
ANISTSDPDFYKP [YDR406W 122-134] | 99.2
